Measurements from article PMC8054479 (Nature, 2020).

B1: C9orf72 (natural protein)
chain: MSTLCPPPSPAVAKTEIALSGKSPLLAATFAYWDNILGPRVRHIWAPKTEQVLLSDGEITFLANHTLNGEILRNAESGAIDVKFFVLSEKGVIIVSLIFDGNWNGDRSTYGLSIILPQTELSFYLPLHRVCVDRLTHIIRKGRIWMHKERQENVQKIILEGTERMEDQGQSIIPMLTGEVIPVMELLSSMKSHSVPEEIDIADTVLNDDDIGDSCHEGFLLNAISSHLQTCGCSVVVGSSAEKVNKIVRTLCLFLTPAERKCSRLCEAESSFKYESGLFVQGLLKDSTGSFVLPFRQVMYAPYPTTHIDVDVNTVKQMPPCHEHIYNQRRYMRSELTAFWRATSEEDMAQDTIIYTDESFTPDLNIFQDVLHRDTLVKAFLDQVFQLKPGLSLRSTFLAQFLLVLHRKALTLIKYIEDDTQKGKKPFKSLRNLKIDLDLTAEGDLNIIMALAEKIKPGLHSFIFGRPFYTSVQERDVLMTF
B2: WDR41 (WD repeat protein 41) (natural protein)
chain: MLRWLIGGGREPQGLAEKSPLQTIGEEQTQNPYTELLVLKAHHDIVRFLVQLDDYRFASAGDDGIVVVWNAQTGEKLLELNGHTQKITAIITFPSLESCEEKNQLILTASADRTVIVWDGDTTRQVQRISCFQSTVKCLTVLQRLDVWLSGGNDLCVWNRKLDLLCKTSHLSDTGISALVEIPKNCVVAAVGKELIIFRLVAPTEGSLEWDILEVKRLLDHQDNILSLINVNDLSFVTGSHVGELIIWDALDWTMQAYERNFWDPSPQLDTQQEIKLCQKSNDISIHHFTCDEENVFAAVGRGLYVYSLQMKRVIACQKTAHDSNVLHVARLPNRQLISCSEDGSVRIWELREKQQLAAEPVPTGFFNMWGFGRVSKQASQPVKKQQENATSCSLELIGDLIGHSSSVEMFLYFEDHGLVTCSADHLIILWKNGERESGLRSLRLFQKLEENGDLYLAV

Molecular target: T1, SMCR8 (Smith-Magenis syndrome chromosome region, candidate 8) (human, UniProt Q8TEV9 1-937)
T1 sequence: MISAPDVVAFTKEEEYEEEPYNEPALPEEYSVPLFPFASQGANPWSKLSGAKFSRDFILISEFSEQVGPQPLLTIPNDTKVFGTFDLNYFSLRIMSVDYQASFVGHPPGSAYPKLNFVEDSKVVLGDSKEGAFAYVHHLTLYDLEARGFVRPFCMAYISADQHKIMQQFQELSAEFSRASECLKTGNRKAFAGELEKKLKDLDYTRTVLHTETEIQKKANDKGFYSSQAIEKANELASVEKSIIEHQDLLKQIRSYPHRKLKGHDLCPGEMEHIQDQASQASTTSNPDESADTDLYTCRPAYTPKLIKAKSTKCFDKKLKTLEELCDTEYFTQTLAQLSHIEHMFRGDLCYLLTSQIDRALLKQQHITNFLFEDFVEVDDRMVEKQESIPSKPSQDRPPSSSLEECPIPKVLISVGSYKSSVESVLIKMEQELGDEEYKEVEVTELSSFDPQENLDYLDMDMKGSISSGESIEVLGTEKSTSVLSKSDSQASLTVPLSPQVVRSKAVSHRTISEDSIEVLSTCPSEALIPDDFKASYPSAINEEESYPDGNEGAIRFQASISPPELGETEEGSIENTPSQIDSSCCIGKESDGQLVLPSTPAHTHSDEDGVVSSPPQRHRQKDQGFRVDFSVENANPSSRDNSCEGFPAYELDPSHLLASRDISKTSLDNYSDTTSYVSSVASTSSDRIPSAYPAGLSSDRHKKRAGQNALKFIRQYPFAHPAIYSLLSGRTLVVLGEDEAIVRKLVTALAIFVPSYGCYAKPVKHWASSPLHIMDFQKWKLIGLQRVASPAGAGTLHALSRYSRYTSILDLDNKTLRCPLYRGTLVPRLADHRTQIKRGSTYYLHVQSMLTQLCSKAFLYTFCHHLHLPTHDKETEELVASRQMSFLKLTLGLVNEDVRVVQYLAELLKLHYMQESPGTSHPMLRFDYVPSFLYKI
Assay: cryo-EM structure

Binder	binding result
B1	binds
B2	binds
